This assay concerns the target T1, fusion protein between the extracellular domain of rat RET and placental alkaline phosphatase (rat, UniProt G3V9H8 24-637).
T1 construct: extracellular domain; Used as conditioned medium from 293 EBNA cells; Construct described in Sanicola et al. 1997; also called RET-AP
In words: ternary complex assay without ligand (parental CHO medium or straight medium). The method, then:
Dynex Microlite-1 ELISA plates (Dynex Technologies) were coated with 1 μg/ml goat antibody specific for human Fc in 50 mM bicarbonate/carbonate, pH 9.6 for 16 hr. The plates were emptied and filled with 300 μl of 1% I-block (Tropix) in TBS/0.5% Tween-20 (TBST), for 1 hr. After washing three times with TBST the wells were filled with 100 μl of 1 μg/ml rGFRα1-Ig or mGFRα3-Ig diluted in conditioned media from 293 EBNA cells expressing the RET-AP fusion gene. 100 ul of conditioned media from the CHO neublastin clones was then added to the top well of a column of wells, and 2 fold serial dilutions were performed down each row of wells, and incubated for 1.5 hr at room temperature. The plates were then washed three times with TBST, and twice with 200 mM Tris pH9.8, 10 mM MgCl₂ (CSPD buffer). The wash solution was then replaced with 425 μM CSPD (Tropix) in CSPD buffer containing 1 mg/ml Sapphire chemiluminescence enhancer (Tropix), and incubated for 30′ at room temperature. The chemiluminescent output was measured using a Dynatech luminometer.
The initial experiments investigated whether neublastin produced by the CHO cell lines could mediate the binding of GFRα1 or GFRα3 to the extracellular domain of RET.

T1 sequence (G3V9H8 24-637): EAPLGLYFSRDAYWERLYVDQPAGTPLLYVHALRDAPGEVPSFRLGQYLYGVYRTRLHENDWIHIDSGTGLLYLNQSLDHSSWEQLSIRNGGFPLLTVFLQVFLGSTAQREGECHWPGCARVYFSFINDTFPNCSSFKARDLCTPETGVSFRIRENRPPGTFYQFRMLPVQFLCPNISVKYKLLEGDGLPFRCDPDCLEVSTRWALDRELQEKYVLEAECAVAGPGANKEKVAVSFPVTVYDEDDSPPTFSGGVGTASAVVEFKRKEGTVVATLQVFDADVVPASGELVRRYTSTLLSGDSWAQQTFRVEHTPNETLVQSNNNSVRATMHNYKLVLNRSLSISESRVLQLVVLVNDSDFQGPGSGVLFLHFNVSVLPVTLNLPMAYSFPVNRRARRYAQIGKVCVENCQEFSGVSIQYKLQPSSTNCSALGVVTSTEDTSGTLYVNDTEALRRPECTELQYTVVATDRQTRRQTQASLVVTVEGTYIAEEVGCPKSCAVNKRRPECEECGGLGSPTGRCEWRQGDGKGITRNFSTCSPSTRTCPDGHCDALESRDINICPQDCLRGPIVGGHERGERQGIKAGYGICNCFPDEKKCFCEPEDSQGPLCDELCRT

B1: fusion protein between the extracellular domain of rat GFRα1 and the Fc domain of human IgG1 (Fc fusion, UniProt Q62997 25-430, looked up, not shown: a dimerising Fc or GST)
chain: DRLDCVKASDQCLKEQSCSTKYRTLRQCVAGKETNFSLTSGLEAKDECRSAMEALKQKSLYNCRCKRGMKKEKNCLRIYWSMYQSLQGNDLLEDSPYEPVNSRLSDIFRAVPFISDVFQQVEHISKGNNCLDAAKACNLDDTCKKYRSAYITPCTTSMSNEVCNRRKCHKALRQFFDKVPAKHSYGMLFCSCRDIACTERRRQTIVPVCSYEERERPNCLSLQDSCKTNYICRSRLADFFTNCQPESRSVSNCLKENYADCLLAYSGLIGTVMTPNYVDSSSLSVAPWCDCSNSGNDLEDCLKFLNFFKDNTCLKNAIQAFGNGSDVTMWQPAPPVQTTTATTTTAFRVKNKPLGPAGSENEIPTHVLPPCANLQAQKLKSNVSGSTHLCLSDSDFGKDGLAGASS
notes: extracellular domain; Construct described in Sanicola et al. 1997; also called rGFRα1-Ig
For B1, the binding result is “no binding”.

The record behind these values is patent US20020055467A1 (Biogen, published 2002).
